Assays:
[1] = target: human Gremlin-1 (huGREM1), recombinant protein (human) (UniProt O60565); test: binding ELISA on huGREM1, hybridoma clone selection
[2] = target: human Gremlin-1 (huGREM1), recombinant protein (human) (UniProt O60565); test: cell-based or functional assay

UniProt O60565, sequence (O60565 25-184 limits assumed): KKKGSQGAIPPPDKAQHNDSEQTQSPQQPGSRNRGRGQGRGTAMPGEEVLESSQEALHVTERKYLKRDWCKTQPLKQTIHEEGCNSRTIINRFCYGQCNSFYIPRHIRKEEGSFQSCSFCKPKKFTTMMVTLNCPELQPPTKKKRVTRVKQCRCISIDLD

OD 492 nm [1]: > 0.9 OD 492 nm
EC50, in vitro Gremlin-1 neutralization assay (ALP activity in ATDC5 cells) [2]: 26.4 nM
B1: anti-Gremlin-1 antibody 14-D10-2 (antibody, from a related filing, IgG2b, V domains shown)
VH: EVQLQQSGPELVKPGASVKISCKASGYSFTGYYMHWVKQSHGNILDWIGYFFPYNGFSNCNQKFKGKATLTVDKSSSTAYMELRSLTSEDSAVYYCARGGLGRGYFDVWGTGTTVTVSS
VL: DIQMTQSPSYLSVSLGGRVTITCKASDHINNWLAWYQQKPGNAPRLLISGATSLETGVPSRFSGSGSGKDYTLSITSLQTEDVATYYCQQYWSSPRTFGGGTKLEIK

Reference: patent US20250270302A1
